In the supplement of paper PMC12042874:
± gives the uncertainty stated by the source.

Assay: amyloid nucleation score (Sup35N fusion, yeast selection) (log enrichment); library NNK3; higher = more nucleation; inactive = no reads after selection
Method in brief: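 Three technical output replicates were used for random libraries. Psi-negative yeast expressing peptides of 20 random codons fused to Sup35N were induced with 100 μM copper sulfate for 24 hours and grown 7 days at 30°C on medium lacking adenine and uracil, and input and output plasmid inserts were Illumina-sequenced, excluding sequences with under 100 input reads. The nucleation score is the DiMSum log enrichment of output over input reads, centred on the mode score of non-aggregating sequences.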

| Substance | amyloid nucleation score |
| --- | --- |
| NGFLNSINGTVMVQGYSTAF | inactive |
| NGFSTVTSSPGLCFLYRMFI | inactive |
| NGIMLQIRNPSSKLNNLLWF | inactive |
| NGLPVLLEEDLS | inactive |
| NGSIILICLVYVGLRCLWFL | inactive |
| NGWRCLTVWDLSLYHWGYFL | inactive |
| NHESVVWDMNGHPSPVGRGE | inactive |
| NHGNSDEKTFPTMEN | inactive |
| NICMAI | inactive |
| NIFNCDRGSFFLLYRGIGFY | inactive |
| NIIYYTTVGHVHSVW | 1.04 ± 0.18 |
| NIKFIEHLLSYSSTPQPLTC | inactive |
| NILKKLNVRNHFLVLMKKHM | inactive |
| NILRTRSRF | inactive |
| NISFFTHLVSYRPTVRSSD | 1.24 ± 0.14 |
| NIWLP | inactive |
| NKDFGFSYIRTFPRILKVW | inactive |
| NKFFDI | inactive |
| NKFKHESNTNYIPSRQYKVW | inactive |
| NKMDSKYPGRLCLMWGW | 0.48 ± 0.19 |
| NKPGVV | inactive |
| NKSLKLMYFSRDYFKDSRLN | inactive |
| NKVPVGG | inactive |
| NKVSWIFNDSKGQGSV | -0.291 ± 1.3 |

| Substance | amyloid nucleation score |
| --- | --- |
| NLASCFVSIVEGSHFVYC | 1.9 ± 0.1 |
| NLDIWNLRQWSGVVYLV | 0.751 ± 0.14 |
| NLFSRLRYSLSAFQIWRLSV | inactive |
| NLGLLKAVYCVG | inactive |
| NLINTVKYLNFDGLTAFSSQ | inactive |
| NLKNYVFWREILSYVSDPWD | inactive |
| NLLSDSVDMYINAGVDILLA | inactive |
| NLNKNRLLMTMHWNRVFLMS | inactive |
| NLNYRLADSCLNSVLDRLGQ | inactive |
| NLSNIFQSNMYVTRSVNGVR | 1.68 ± 0.084 |
| NLSVAMRLICVTLFLVLLGI | inactive |
| NLSWVLAILCCGL | 1.39 ± 0.15 |
| NLTQFYWSCGEVRVTAFYGA | 2.08 ± 0.079 |
| NLTYNTSYAVVDVLRITCNF | 2.56 ± 0.065 |
| NLVSNMVSNAKVDVVVWHVQ | 0.209 ± 0.54 |
| NLWTTGIRTSPKNLYIVAFM | inactive |
| NLWVEGRKAQENMDPDARSR | inactive |
| NMALLEYDSMSFICRYRNRP | inactive |
| NMNSISYSQPIFRSRTRRRM | inactive |
| NMTHLFMVCAKVSMPSGDGG | inactive |
| NMYWSISDRFRIV | 0.424 ± 0.71 |
| NNDMCLYLTGRRFKG | inactive |
| NNLFELPWKFYEQRNVAELM | inactive |
| NNLMLV | inactive |

| Substance | amyloid nucleation score |
| --- | --- |
| NNLTEEEMDLAPTVSHYLYK | inactive |
| NNLVPYLVWYCVTRNKTNGN | inactive |
| NNNPVGILQNSCVGVIFNHS | -0.517 ± 1 |
| NNRDDK | inactive |
| NNRLRGHF | inactive |
| NPECVGDAWTVVVDYTSLWE | inactive |
| NPKLG | inactive |
| NPPKDGYMLTWIIYDRKAGT | inactive |
| NQCPIRYLWL | 1.43 ± 0.11 |
| NQEVSTGNILGLLAVTSCRD | inactive |
| NQQWISTRVVLKAPAFERRT | inactive |
| NQVMKSNVVYYKATVNNMCF | 2.09 ± 0.071 |
| NRFYVD | inactive |
| NRIFSLTM | inactive |
| NRIFSVCECMVYGICECVCR | inactive |
| NRNRYMFLITITHY | inactive |
| NRSTWCW | inactive |
| NRTFNYNIQNVGSSWEL | 0.233 ± 0.19 |
| NRTQRISWIWVLTPSDVLVS | inactive |
| NSCLRLSSHRMMFLAIAVTC | inactive |
| NSCYFFNLHYVYHETANCFI | 3.2 ± 0.068 |
| NSDSFML | inactive |
| NSETRRIHSKVKLMLIVRLA | inactive |
| NSFDCVRDWLPLIF | inactive |

| Substance | amyloid nucleation score |
| --- | --- |
| NSFMCCRSWDTN | 2.71 ± 0.069 |
| NSFVASEFKRLYRQWSRVHE | inactive |
| NSGDGSGVRFYSDNMDTYMA | 0.185 ± 0.88 |
| NSGWWRVKHNTSQDGSKRSG | inactive |
| NSGYRWEKSLSWMALLGYGC | -0.788 ± 1.1 |
| NSGYVYGIQCNVWVLAFMGF | 2.7 ± 0.068 |
| NSKGMLCWLTA | inactive |
| NSNCYPLVI | inactive |
| NSNDRK | inactive |
| NSNNSGTVKFRNIRLYSTSL | inactive |
| NSSEGDDY | inactive |
| NSTDRGLEFRTDHYHT | inactive |
| NSTKLKPYWGPG | inactive |
| NSTNMDSFGIPLNRILWMLN | inactive |
| NSVRLCRCEVIGQTIRDHGF | inactive |
| NSYFKPVKSCNLQLGEVTLQ | inactive |
| NTAPNISRSVIVCYYDDGEK | inactive |
| NTAYHKRRGW | -0.004 ± 0.71 |
| NTFVPVLVFGFYYVLIMISN | inactive |
| NTGWSF | inactive |
| NTHNNIGGRYAKYGWLMRSK | inactive |
| NTIDYHYKVSCSHGYSLQSY | inactive |
| NTPVGLINYSGDTWLMAIRW | inactive |
| NVAFQCQKLTLLKGKLEPDR | 0.272 ± 0.93 |

| Substance | amyloid nucleation score |
| --- | --- |
| NVAGM | inactive |
| NVGMSKNVFGM | inactive |
| NVIISQA | inactive |
| NVKTGNKPRDTQSRYVLPES | inactive |
| NVLCSFYLMYGLTSAWSVS | inactive |
| NVLCSVRC | inactive |
| NVLKSRIGRFIMQIWYTNKW | inactive |
| NVRGDSRA | inactive |
| NVSFCDDASARANVYHLGKS | inactive |
| NVVCSTARIEKPMGVLCFMF | 1.92 ± 0.092 |
| NWDRGLTCHMYRFSNWRWGS | inactive |
| NWLMSTTFRAYGV | inactive |
| NWLSMQRTLFWP | -0.38 ± 0.5 |
| NWYVECYITYSLVLYLANDS | 1.69 ± 0.066 |
| NYEARLSG | inactive |
| NYFYGYQACVVHGISFTMGQ | 0.956 ± 0.19 |
| NYLLEEEYMISCIEAITLQP | -0.345 ± 0.82 |
| NYLYPKLITYYLTSGLRWII | inactive |
| NYVMRILILCSNGWLGRECV | inactive |
| NYVTLKSKGITMSWLLLDYR | inactive |
| PAERYKRSSLAKSYRLNYRS | inactive |
| PAQSQAYVLKAGGPRLDGRV | inactive |
| PCILPKRTRIIVR | inactive |
